A word on the Kd: it is the equilibrium constant for the complex coming apart.

Kd data for two molecules are collected here from patent US20160266124A1 (published 2016).

For this test, the target named is 15F12. Nature of the test: SPR. Background: Surface plasmon resonance follows binding to a sensor surface in real time, without labels.

B1: pHP1 (other)
chain: VDSGNDVTDIADDGCPKPPEIAHGYVEHSVRYQCKNYYKLRTEGDGVYTLNNEKQWINKAVGDKLPECEAVCGKPKNPANPVQRILGGHLDAKGSFPWQAKMVSHHNLTTGATLINEQWLLTTAKNLFLNHSENATAKDIAPTLTLYVGKKQLVEIEKVVLHPNYSQVDIGLIKLKQKVSVNERVMPICLPSKDYAEVGRVGYVSGWGRNANFKFTDHLKYVMLPVADQDQCIRHYEGSTVPEKKTPKSPVGVQPILNEHTFCAGMSKYQEDTCYGDAGSAFAVHDLEEDTWYATGILSFDKSCAVAEYGVYVKVTSIQDWVQKTIAEN
B1 yielded a Kd of 0.3 nM.

B2: pHP2 (other)
chain: VDSGNDVTDIADDGCPKPPEIAHGYVEHSVRYQCKNYYKLRTEGDGVYTLNDKKQWINKAVGDKLPECEADDGCPKPPEIAHGYVEHSVRYQCKNYYKLRTEGDGVYTLNNEKQWINKAVGDKLPECEAVCGKPKNPANPVQRILGGHLDAKGSFPWQAKMVSHHNLTTGATLINEQWLLTTAKNLFLNHSENATAKDIAPTLTLYVGKKQLVEIEKVVLHPNYSQVDIGLIKLKQKVSVNERVMPICLPSKDYAEVGRVGYVSGWGRNANFKFTDHLKYVMLPVADQDQCIRHYEGSTVPEKKTPKSPVGVQPILNEHTFCAGMSKYQEDTCYGDAGSAFAVHDLEEDTWYATGILSFDKSCAVAEYGVYVKVTSIQDWVQKTIAENHHHHHH
The molecule B2 had a Kd of 0.3 nM. This counts as sub-nanomolar.
